Data: PMC10899749

Experiments:
[1] = tested on: H-NS K120ace (Edwardsiella piscicida EIB202); experiment: competition EMSA; conditions: EMSA: 20 ng Cy5 probe, 20 mM Tris pH 8.0, 150 mM NaCl, 0.1 mM DTT, 0.1 mM EDTA, 200 ng poly(dI:dC), 25 C, 30 min; 10% PAGE in Tris-glycine at 4 C
[2] = tested on: H-NS (Edwardsiella piscicida EIB202); experiment: competition EMSA; conditions: EMSA: 20 ng Cy5 probe, 20 mM Tris pH 8.0, 150 mM NaCl, 0.1 mM DTT, 0.1 mM EDTA, 200 ng poly(dI:dC), 25 C, 30 min; 10% PAGE in Tris-glycine at 4 C

PesrB (esrB promoter) gave a binding signal (% H-NS K120ace-bound DNA lost) [1] of 87 and a binding signal (% H-NS-bound DNA lost) [2] of 43.
